Experimental data taken from patent publication US12433934B2, “Methods and compositions for preventing and treating atherosclerosis and related diseases” (Shanghai Puyou Biomedical Co., Ltd., priority 2018, dated 2025).
Entries after “also recorded” stand apart in the source; their conditions may differ.

Legend:
ApoE−/− mice = assay: Atherosclerotic plaques of the aorta (en face oil red O staining) in high-fat diet ApoE−/− mice; assay type: in vivo; settings: ATV 40 mg/kg orally once a day, 13 weeks, high-fat diet
Procedure: FIGS. 15-16. The sDSS1 protein inhibits the formation of atherosclerotic plaques in ApoE−/− mice. […] At the end of the injection, the aorta was dissected for oil red O staining, and the area of plaques was calculated.
Experimental animals: ApoE−/− mice, 8-week-old, male, were purchased from Nanjing Biomedical Research Institute of Nanjing University. The experimental animals were housed in an animal room for one week before the experiment.
Experimental method: ApoE−/− mice were fed with high-fat diet containing 0.25% cholesterol starting from the age of 9 weeks. From the 10th week of high-fat diet feeding, the mice were randomly divided into three groups according to the total cholesterol level, with 10 mice in each group. […] At the 22nd week of high-fat diet feeding, that is, the 13th week of administration, the animals were executed and dissected, and the whole aorta was separated. The separated aorta was stained with en face oil red O to evaluate the formation of atherosclerotic plaques.

oxLDL = target: T1, oxLDL (Homo sapiens, UniProt P04114); assay: Co-incubation with oxLDL, SDS-PAGE separation, Coomassie brilliant blue staining; assay type: binding; settings: phosphate buffer pH 7.2
T1 construct: purchased Solarbio H7980
Procedure: Experimental materials: sDSS1 protein, sDSS1 mutant protein 1 (sDSS1-M1, SEQ ID NO: 15), sDSS1 mutant protein 2 (sDSS1-M2, SEQ ID NO: 16), oxidized low density lipoprotein (oxLDL) (Solarbio, Article No.: H7980); low density lipoprotein (LDL) (Solarbio, Article No.: H7960).
Experimental method: 2 μg of oxLDL or LDL was mixed with 6 μg of sDSS1 protein or 10 μg of sDSS1 protein in a 1.5 ml EP tube in the presence of 20 mM sodium acetate/acetic acid buffer (pH 4.5) or 20 mM phosphate buffer (pH 7.2) respectively, and incubated at 37° C. for 12 h. A loading buffer was added in the incubated product and evenly mixed, and the obtained mixture was denatured at 100° C. for 10 min to prepare a loading sample. The resulting sample was subjected to electrophoretic separation via polyacrylamide gel electrophoresis (SDS-PAGE). After separation, the SDS-PAGE gel was stained with Coomassie brilliant blue to display protein strips. The sDSS1-M1 or sDSS1-M2 protein was respectively mixed and incubated with oxLDL, and treated in the same way. 15 μL of the sample was used for SDS-PAGE electrophoresis separation.

T1 sequence (P04114 28-4563): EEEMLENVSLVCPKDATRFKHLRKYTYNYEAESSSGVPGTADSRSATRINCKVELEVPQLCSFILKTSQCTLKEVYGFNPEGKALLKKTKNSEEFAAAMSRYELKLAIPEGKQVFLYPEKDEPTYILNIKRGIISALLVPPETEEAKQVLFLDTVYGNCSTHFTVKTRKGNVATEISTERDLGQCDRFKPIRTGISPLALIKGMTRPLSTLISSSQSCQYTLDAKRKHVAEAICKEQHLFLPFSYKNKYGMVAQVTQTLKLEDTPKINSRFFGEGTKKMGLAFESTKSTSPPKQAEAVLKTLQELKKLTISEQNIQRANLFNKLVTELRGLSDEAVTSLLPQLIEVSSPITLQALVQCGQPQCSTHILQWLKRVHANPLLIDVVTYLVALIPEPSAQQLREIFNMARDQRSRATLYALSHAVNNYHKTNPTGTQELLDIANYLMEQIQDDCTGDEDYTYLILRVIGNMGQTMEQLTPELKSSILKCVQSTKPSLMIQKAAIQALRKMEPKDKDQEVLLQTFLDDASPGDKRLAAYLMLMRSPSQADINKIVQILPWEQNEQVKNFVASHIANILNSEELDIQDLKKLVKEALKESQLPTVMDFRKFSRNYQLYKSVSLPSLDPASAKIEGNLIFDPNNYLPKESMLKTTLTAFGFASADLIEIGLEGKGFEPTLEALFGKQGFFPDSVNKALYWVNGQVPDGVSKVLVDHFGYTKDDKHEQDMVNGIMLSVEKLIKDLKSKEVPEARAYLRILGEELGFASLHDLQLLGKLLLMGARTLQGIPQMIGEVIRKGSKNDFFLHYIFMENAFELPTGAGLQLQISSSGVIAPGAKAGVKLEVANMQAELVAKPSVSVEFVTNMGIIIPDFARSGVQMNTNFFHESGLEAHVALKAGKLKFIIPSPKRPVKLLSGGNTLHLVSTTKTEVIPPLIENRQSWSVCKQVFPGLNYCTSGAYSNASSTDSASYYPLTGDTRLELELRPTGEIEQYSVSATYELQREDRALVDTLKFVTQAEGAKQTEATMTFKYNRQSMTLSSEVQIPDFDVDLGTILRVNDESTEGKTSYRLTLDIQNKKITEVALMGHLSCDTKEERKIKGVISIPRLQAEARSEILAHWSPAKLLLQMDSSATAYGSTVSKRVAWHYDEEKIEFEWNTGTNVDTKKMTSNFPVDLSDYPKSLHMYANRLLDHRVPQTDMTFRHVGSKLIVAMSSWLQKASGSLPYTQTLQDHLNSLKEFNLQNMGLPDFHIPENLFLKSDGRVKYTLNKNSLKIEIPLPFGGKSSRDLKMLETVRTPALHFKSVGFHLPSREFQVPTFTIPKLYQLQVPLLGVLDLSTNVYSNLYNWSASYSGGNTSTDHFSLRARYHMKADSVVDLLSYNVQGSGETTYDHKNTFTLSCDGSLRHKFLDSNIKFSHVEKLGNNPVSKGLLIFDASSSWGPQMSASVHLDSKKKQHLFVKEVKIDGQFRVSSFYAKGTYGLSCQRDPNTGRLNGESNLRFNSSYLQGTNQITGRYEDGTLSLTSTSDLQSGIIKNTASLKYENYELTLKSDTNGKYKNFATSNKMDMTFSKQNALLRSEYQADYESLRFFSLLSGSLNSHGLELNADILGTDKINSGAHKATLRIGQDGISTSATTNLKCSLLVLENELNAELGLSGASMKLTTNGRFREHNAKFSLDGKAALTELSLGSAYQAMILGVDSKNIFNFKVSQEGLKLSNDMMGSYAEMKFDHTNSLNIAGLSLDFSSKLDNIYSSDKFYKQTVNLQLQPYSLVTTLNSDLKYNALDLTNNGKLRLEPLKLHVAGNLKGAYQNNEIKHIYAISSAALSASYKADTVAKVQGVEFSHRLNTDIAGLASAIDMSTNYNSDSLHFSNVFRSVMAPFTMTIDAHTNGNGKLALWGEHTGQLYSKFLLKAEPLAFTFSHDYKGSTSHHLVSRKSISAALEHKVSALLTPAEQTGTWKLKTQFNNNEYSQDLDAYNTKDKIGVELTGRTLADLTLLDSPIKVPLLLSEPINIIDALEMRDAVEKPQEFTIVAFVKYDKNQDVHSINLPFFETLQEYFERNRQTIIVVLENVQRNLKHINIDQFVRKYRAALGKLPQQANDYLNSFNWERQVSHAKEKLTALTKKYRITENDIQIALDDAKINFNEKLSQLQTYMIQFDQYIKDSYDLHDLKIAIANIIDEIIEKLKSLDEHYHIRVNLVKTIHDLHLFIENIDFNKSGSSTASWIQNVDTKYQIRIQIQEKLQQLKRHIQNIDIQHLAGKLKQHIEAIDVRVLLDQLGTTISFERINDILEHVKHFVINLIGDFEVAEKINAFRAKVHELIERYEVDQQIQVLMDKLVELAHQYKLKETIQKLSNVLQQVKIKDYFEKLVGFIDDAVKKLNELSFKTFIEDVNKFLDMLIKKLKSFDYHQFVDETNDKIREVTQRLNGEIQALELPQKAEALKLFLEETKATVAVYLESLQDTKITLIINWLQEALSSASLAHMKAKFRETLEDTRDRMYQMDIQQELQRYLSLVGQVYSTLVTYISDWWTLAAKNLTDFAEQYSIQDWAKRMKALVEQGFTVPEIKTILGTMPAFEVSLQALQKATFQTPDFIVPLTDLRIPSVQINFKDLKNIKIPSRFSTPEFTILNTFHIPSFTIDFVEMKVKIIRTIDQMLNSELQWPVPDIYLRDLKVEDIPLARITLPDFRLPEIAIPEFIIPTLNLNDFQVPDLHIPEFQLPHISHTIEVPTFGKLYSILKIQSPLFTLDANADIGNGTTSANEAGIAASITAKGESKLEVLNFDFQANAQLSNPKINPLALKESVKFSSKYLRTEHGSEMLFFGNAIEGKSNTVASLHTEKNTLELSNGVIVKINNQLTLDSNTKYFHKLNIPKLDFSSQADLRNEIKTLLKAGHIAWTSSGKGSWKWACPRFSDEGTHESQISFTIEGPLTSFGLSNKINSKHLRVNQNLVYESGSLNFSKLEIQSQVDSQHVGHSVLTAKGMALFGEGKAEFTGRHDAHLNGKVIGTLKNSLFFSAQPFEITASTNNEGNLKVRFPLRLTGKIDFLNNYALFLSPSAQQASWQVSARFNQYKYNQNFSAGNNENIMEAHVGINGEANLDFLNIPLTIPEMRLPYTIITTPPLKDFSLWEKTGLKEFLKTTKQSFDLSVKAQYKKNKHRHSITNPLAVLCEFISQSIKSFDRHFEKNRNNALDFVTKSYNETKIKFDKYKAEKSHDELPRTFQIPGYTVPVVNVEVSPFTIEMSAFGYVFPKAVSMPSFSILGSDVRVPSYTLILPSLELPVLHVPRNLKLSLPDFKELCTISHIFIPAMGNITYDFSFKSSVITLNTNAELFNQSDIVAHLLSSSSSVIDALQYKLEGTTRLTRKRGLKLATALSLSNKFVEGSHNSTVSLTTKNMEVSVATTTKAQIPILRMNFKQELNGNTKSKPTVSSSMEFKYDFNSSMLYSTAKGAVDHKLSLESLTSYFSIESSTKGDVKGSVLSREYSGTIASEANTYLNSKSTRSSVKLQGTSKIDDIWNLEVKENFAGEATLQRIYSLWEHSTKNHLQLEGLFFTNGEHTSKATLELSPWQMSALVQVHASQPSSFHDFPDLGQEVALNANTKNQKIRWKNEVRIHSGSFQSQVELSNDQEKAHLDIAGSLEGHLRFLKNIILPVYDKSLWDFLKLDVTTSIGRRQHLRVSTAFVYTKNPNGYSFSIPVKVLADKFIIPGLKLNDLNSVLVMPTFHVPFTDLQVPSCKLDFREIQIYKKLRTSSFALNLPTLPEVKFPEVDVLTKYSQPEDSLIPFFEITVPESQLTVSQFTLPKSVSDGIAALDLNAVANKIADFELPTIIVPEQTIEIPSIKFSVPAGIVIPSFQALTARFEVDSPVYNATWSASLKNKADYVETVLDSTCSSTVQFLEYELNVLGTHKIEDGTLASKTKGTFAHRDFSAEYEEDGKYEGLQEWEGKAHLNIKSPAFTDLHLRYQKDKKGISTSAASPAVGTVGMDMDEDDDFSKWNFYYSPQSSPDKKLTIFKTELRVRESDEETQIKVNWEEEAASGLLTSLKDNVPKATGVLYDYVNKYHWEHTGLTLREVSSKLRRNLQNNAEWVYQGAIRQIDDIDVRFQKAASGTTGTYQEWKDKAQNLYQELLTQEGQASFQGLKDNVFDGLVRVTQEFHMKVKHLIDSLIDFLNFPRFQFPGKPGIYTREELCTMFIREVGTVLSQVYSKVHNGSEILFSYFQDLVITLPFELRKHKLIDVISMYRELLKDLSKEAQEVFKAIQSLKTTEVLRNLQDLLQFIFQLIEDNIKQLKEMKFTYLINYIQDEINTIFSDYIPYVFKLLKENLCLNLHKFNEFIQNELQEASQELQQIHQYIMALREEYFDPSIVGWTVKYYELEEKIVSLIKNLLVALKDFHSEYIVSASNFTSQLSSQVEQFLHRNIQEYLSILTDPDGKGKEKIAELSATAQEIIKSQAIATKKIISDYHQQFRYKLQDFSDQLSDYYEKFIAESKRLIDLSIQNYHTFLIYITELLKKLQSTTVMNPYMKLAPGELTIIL

Molecule	Area of atherosclerotic plaques (en face oil red O) vs model group (ApoE−/− mice)	Interaction with oxLDL (complex on SDS-PAGE gel) (oxLDL)
CC(C)c1c(C(=O)Nc2ccccc2)c(-c2ccccc2)c(-c2ccc(F)cc2)n1CC[C@@H](O)C[C@@H](O)CC(=O)O [ATV, Atorvastatin, reference compound]	significantly reduced	–
sDSS1-M1: sDSS1 mutant protein 1, SEQ ID NO: 15 (protein) MSEKKQPVDLGLLEEDDEFEEFPAEDWAGLDEDEDAHVWEDNWDDDNVEDDFSNQLRATVLLMILVAETPYGAYVLHQKGRMASAFLAA	–	can also interact with oxLDL to form complexes; also recorded: interacted with the oxLDL protein
sDSS1-M2: sDSS1 mutant protein 2, SEQ ID NO: 16 (protein) MSEKKQPVDLGLLEEDDEFEEFPAEDWAGLDEDEDAHVWEDNWDDDNVEDDFSNQLRATVLLMILVVETPYGVYVLHQKGRMVSAFLVV	–	can also interact with oxLDL to form complexes; also recorded: interacts with the oxLDL protein
